IC50 data for nine molecules are collected here from patent publication US20190091332A1 (published 2019).

Assay [1] deals with T1, human LAG3-huFc (human, UniProt P18627 23-450, limits assumed).
T1 construct: also called human LAG3-Fc; huLAG3-huFc; not shown: human Fc (huFc)
T1 sequence: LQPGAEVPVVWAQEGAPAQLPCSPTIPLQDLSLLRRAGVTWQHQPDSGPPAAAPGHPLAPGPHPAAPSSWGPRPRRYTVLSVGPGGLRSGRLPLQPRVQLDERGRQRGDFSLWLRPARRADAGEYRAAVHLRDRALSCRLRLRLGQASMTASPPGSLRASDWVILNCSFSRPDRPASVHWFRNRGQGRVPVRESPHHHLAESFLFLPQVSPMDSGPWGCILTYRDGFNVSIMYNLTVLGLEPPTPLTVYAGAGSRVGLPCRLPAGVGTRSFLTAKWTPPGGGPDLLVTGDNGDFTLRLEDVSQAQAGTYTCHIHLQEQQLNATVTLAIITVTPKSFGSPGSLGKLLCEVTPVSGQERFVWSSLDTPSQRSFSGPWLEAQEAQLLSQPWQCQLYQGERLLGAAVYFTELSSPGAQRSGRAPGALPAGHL
Kind of assay: flow cytometry competition: antibody pre-incubated with human LAG3-huFc, its binding to Daudi cells (MHC class II) read. Here is the method: (§1) Mouse anti-human LAG3 clones were tested for their ability to block hLAG3 interaction with human MHC Class II. Daudi cells (ATCC #CCL-213) were used as a cell line positive for human MHC class II expression. Daudi cells were blocked with 10 ug/ml of goat IgG in HBSS and 2% BCS on ice for 30 minutes and 0.5×10⁶ cells/sample were aliquoted into a 96-well V-bottom plate and blocking buffer removed. […] Cells were pelleted by centrifugation at 1200 rpm and washed twice with HBSS/2% BCS. […] Cells were washed twice as described above, resuspended in HBSS/2% BCS and read on the FACSCalibur.

In assay [2] the target is T1, human LAG3-huFc. Described as above. Here is the method:
as §1
This is another data set of the same source.

Assay [3] deals with T1, human LAG3-huFc. As to the kind of experiment: flow cytometry competition: antibody pre-incubated with biotinylated human LAG3-huFc, its binding to Daudi cells (MHC class II) read with streptavidin-PE. How it is done: as §1, with “anti-human LAG3 and humanized anti-LAG3 clones were” for “anti-human LAG3 clones were”
(In flow cytometry, cells or beads pass a laser one at a time.)

One may read the IC50 as the midpoint of a concentration-inhibition curve. Low readings indicate inhibition by little substance, high ones a need for much substance.

B1: LB148.4A10.1H1 (antibody, V domains shown)
VH: EVQLLQSGAELVRSGASVKLSCTASGFNIEDYYMHWMKQRPEQGLEWIGWIDPVNGDTEYAPKFQGKATMTADTSSNTAYLHLNSLTSEDTAVYYCNFYDGYLFAFWGQGTLVTVSA
VL: DIVLTQAAPSVPVTPGESVSISCRSSKSLLHSDGNTYLYWLLQRPGQSPQLLIYRMSNLASGVPDRFSGSGSGTVFTLRISRLEAEDVGIYYCMQHLEYPFTFGGGTKLEIK
notes: also called Lag3 clone 4A10; mouse x [LAG3_H] mAb (LB148.4A10.1H1) IgG2a/kappa (HY)
Take B1: the IC50 with human LAG3-huFc [1] and with human LAG3-huFc [2] was 1.9 nM each time.

B2: LB148.19E8.G1.1A1 (antibody, V domains shown)
VH: QIRLQQSGPELVKPGASVKISCKASGSSFTDYYINWVKQKPGQGLEWIGWIYPGSGNSIYNENFKAKATLTVDTSSSTAYMHLSSLTSEDTAVYFCAREADYDDALDYWGQGTSVTVSS
VL: HILLTQSPAILSVSPGERVSFSCRASQSIGTSIHWYQQRTNGSPRLLIKYASESISGIPSRFSGSGSGTDFTLSINSVESEDIADYYCQQSNSWPTYTFGGGTKLEIK
notes: also called Lag3 clone 19E8
B2: the IC50 in the assay with human LAG3-huFc [1] and with human LAG3-huFc [2] was 2.8 nM each time.

B3: Hu22D2 VH6/VL3 (Ab 5) (antibody, human IgG4 S228P, kappa, V domains shown)
VH: QMQLVQSGPEVKKPGTSVKVSCKASGYTFTDYNVDWVRQARGQRLEWIGDINPNNGGTIYAQKFQERVTITVDKSTSTAYMELSSLRSEDTAVYYCARNYRWFGAMDHWGQGTTVTVSS
VL: DIVMTQTPLSLSVTPGQPASISCKASQSLDYEGDSDMNWYLQKPGQPPQLLIYGASNLESGVPDRFSGSGSGTDFTLKISRVEAEDVGVYYCQQSTEDPRTFGGGTKVEIKR
notes: Humanized 22D2, IgG4 S228P/kappa; also called 45AGX light chain / 57AHH heavy chain IgG4 S228P
As to B3, in the assay with human LAG3-huFc [3], the IC50 is 2.6 nM.

B4: Hu22D2 VH6/VL3 N55S (Ab 7) (antibody, human IgG4 S228P, kappa, V domains shown)
VH: QMQLVQSGPEVKKPGTSVKVSCKASGYTFTDYNVDWVRQARGQRLEWIGDINPNSGGTIYAQKFQERVTITVDKSTSTAYMELSSLRSEDTAVYYCARNYRWFGAMDHWGQGTTVTVSS
VL: DIVMTQTPLSLSVTPGQPASISCKASQSLDYEGDSDMNWYLQKPGQPPQLLIYGASNLESGVPDRFSGSGSGTDFTLKISRVEAEDVGVYYCQQSTEDPRTFGGGTKVEIKR
notes: Humanized 22D2, IgG4 S228P/kappa; also called 45AGX light chain / 21AHG heavy chain IgG4 S228P
With B4, in the assay with human LAG3-huFc [3], the IC50 stood at 2.1 nM.

B5: Hu22D2 VH6/VL3 N55Q (Ab 8) (antibody, human IgG4 S228P, kappa, V domains shown)
VH: QMQLVQSGPEVKKPGTSVKVSCKASGYTFTDYNVDWVRQARGQRLEWIGDINPNQGGTIYAQKFQERVTITVDKSTSTAYMELSSLRSEDTAVYYCARNYRWFGAMDHWGQGTTVTVSS
VL: DIVMTQTPLSLSVTPGQPASISCKASQSLDYEGDSDMNWYLQKPGQPPQLLIYGASNLESGVPDRFSGSGSGTDFTLKISRVEAEDVGVYYCQQSTEDPRTFGGGTKVEIKR
notes: Humanized 22D2, IgG4 S228P/kappa; also called 45AGX light chain / 80AHG heavy chain IgG4 S228P
In the case of B5, the IC50 with human LAG3-huFc [3] stood at 2.5 nM.

B6: Hu22D2 VH6/VL3 N55D (Ab 6) (antibody, human IgG4 S228P, kappa, V domains shown)
VH: QMQLVQSGPEVKKPGTSVKVSCKASGYTFTDYNVDWVRQARGQRLEWIGDINPNDGGTIYAQKFQERVTITVDKSTSTAYMELSSLRSEDTAVYYCARNYRWFGAMDHWGQGTTVTVSS
VL: DIVMTQTPLSLSVTPGQPASISCKASQSLDYEGDSDMNWYLQKPGQPPQLLIYGASNLESGVPDRFSGSGSGTDFTLKISRVEAEDVGVYYCQQSTEDPRTFGGGTKVEIKR
notes: Humanized 22D2, IgG4 S228P/kappa; also called Hu2D2; 45AGX light chain / 73AHD heavy chain IgG4 S228P
In the assay with human LAG3-huFc [3], B6 returned an IC50 of 2.4 nM.

B7: LB145.22D2.E1.1D1 (antibody, V domains shown)
VH: EVLLLQSGPELVKPGTSVKIPCKASGYTFTDYNVDWVKQRHGKGLEWIGDINPNNGGTIYSQKFKGKATLTVDKSSSTAFMELRSLTSEDTAVYFCARNYRWFGAMDHWGQGTSVTVSS
VL: DIVLTQSPASLAVSPGQRATISCKASQSLDYEGDSDMNWYQQKPGQPPRLLISGASNLESGIPARFSGSGSGTDFTVNIHPVEEEDAATYYCQQSTEDPRTFGGGTKLEIK
notes: also called mouse anti-human LAG3 clone 22D2; Lag3 clone 22D2
As to B7, the IC50 in the assay with human LAG3-huFc [1] and with human LAG3-huFc [2] was 2.1 nM in each case.

B8: 22D2 Chimera ([LAG3_H] mAb (LB145.22D2.E1.D1 (VH0/VL0) Geneart) IgG4 S228P/kappa (PX)) (antibody, V domains shown)
VH: EVLLLQSGPELVKPGTSVKIPCKASGYTFTDYNVDWVKQRHGKGLEWIGDINPNNGGTIYSQKFKGKATLTVDKSSSTAFMELRSLTSEDTAVYFCARNYRWFGAMDHWGQGTSVTVSS
VL: DIVLTQSPASLAVSPGQRATISCKASQSLDYEGDSDMNWYQQKPGQPPRLLISGASNLESGIPARFSGSGSGTDFTVNIHPVEEEDAATYYCQQSTEDPRTFGGGTKLEIK
notes: Chimeric antibody: 22D2 VH0/VL0 variable domains on human IgG4 S228P/kappa; also called Chimeric 22D2; Anti-hLAG3 clone 22D2 (chimeric antibody)
Consider B8, for which, in the assay with human LAG3-huFc [3], the IC50 turned out to be 2.5 nM.

B9: LB148.11C9.1C1 (antibody, V domains shown)
VH: QVQLQQPGAELVMPGASAKMSCKASGYTLTDYWMHWVKQRPGQGLEWIGAIDISDSYSSYNQKFKGKATLTVDESSSTAYMQLTSLTSEDSAVYYCARSPFYNSRGGNYFDYWGQGTTLTVSS
VL: DIQMTQTTSSLSASLGDRVTISCRASQDISNYLNWYQQKPDGTVKLLIYYTSRLHSGVPSRFSGSGSGTDYSLTISNLEQEDIATYFCQQGDTLPPWTFGGGTKLEIK
notes: also called Lag3 clone 11C9; mouse x [LAG3_H] mAb (LB148.11C9.1C1) IgG1/kappa (HY)
Take B9: the IC50 in the assay with human LAG3-huFc [1] and with human LAG3-huFc [2] was 2 nM each time.
